Target: T1, His-DUB3 (UniProt Q6R6M4 1-530)
T1 construct: deubiquitinase DUB3 (USP17L2) cloned into pET30a; also called USP17L2; source: E. coli BL21, purified
T1 sequence (looked up): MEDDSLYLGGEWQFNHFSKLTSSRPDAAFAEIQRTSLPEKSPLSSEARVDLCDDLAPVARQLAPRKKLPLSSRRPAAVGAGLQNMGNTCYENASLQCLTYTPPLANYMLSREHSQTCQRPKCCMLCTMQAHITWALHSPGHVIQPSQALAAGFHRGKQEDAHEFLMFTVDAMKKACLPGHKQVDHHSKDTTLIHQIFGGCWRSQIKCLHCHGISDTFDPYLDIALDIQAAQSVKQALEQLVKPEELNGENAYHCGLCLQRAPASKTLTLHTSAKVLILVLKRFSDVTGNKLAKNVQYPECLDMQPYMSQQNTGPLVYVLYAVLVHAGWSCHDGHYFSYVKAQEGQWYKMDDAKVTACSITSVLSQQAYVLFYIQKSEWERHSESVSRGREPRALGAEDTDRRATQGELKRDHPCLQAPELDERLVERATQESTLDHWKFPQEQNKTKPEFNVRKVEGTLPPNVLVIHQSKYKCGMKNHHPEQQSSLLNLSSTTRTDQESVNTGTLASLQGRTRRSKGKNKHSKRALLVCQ
Test: pull-down; GST or GST-fusion protein on Pierce Glutathione agarose, incubated with purified His-tagged protein at 4 °C for 2 h; four washes; immunoblotting
Settings: both partners purified

B1: GST-CK2α (Casein kinase II alpha, catalytic subunit) (enzyme, UniProt P68400 1-391, looked up)
chain: MSGPVPSRARVYTDVNTHRPREYWDYESHVVEWGNQDDYQLVRKLGRGKYSEVFEAINITNNEKVVVKILKPVKKKKIKREIKILENLRGGPNIITLADIVKDPVSRTPALVFEHVNNTDFKQLYQTLTDYDIRFYMYEILKALDYCHSMGIMHRDVKPHNVMIDHEHRKLRLIDWGLAEFYHPGQEYNVRVASRYFKGPELLVDYQMYDYSLDMWSLGCMLASMIFRKEPFFHGHDNYDQLVRIAKVLGTEDLYDYIDKYNIELDPRFNDILGRHSRKRWERFVHSENQHLVSPEALDFLDKLLRYDHQSRLTAREAMEHPYFYTVVKDQARMGSSSMPGGSTPVSSANMMSGISSVPTPSPLGPLAGSPVIAAANPLGMPVPAAAGAQQ
notes: Casein kinase II alpha (CK2α), catalytic subunit of CK2, cloned into pGEX4T-1; source: E. coli BL21, IPTG induced, pulled down on Pierce Glutathione agarose
binding result: binds

— paper PMC11743126, “CK2α-mediated phosphorylation of DUB3 promotes YAP1 stability and oncogenic functions” (Cell Death & Disease, 2025)
